The record followed here is PMC10243135.

Read-outs that look alike come from different tables or passages of the source.

Series [1] has as its target T1, WhiA;WhiB;sigmaA (sigma HrdB);RbpA;RNA polymerase core (alpha2 beta beta' omega) (Streptomyces venezuelae;Streptomyces …, UniProt F2RGQ4;F2R611;F2R7X6;F2RBH1;F2RJV9;F2RIS5;F2RIS6;F2RCK7 …, ||||). As to the kind of experiment: cryo-EM.
Series [2] addresses T1, WhiA;WhiB;sigmaA (sigma HrdB);RbpA;RNA …. Description: cryo-EM. The source holds these as a separate data set.

B1: sepX promoter (cryo-EM, RPo) (dsDNA)
DNA 1: GTGATATCAGCCAGATCGTGCGACACACCGGGCCAATTGGCCGATGCCGTCCCGCGAACCCCTCTACCGTGTGAGGCGTGAGCAGCAGCGGCCTCATCGC
DNA 2: GCGATGAGGCCGCTGCTGCTCACGCCTCACACGGTAGAGGGGTTCGCGGGACGGCATCGGCCAATTGGCCCGGTGTGTCGCACGATCTGGCTGATATCAC
Consider B1, for which the binding result in series [1] is “binds”.

B2: sepX-2 promoter (cryo-EM, RPo-2) (dsDNA)
DNA 1: GTGATATCAGCCAGATCGTGCGACACACCGGGCCAATTGGCTTGACACC
DNA 2: GGTGTCAAGCCAATTGGCCCGGTGTGTCGCACGATCTGGCTGATATCAC
In the case of B2, the binding result in series [2] was “binds”.
